Molecular target: GOLPH3 (endogenous) (human (endogenous in HeLa)) (UniProt Q9H4A6)
Experiment: co-IP
Conditions: remark: other sources report otherwise

Sequence of GOLPH3 (endogenous) (human (endogenous in HeLa)) (Q9H4A6 whole entry): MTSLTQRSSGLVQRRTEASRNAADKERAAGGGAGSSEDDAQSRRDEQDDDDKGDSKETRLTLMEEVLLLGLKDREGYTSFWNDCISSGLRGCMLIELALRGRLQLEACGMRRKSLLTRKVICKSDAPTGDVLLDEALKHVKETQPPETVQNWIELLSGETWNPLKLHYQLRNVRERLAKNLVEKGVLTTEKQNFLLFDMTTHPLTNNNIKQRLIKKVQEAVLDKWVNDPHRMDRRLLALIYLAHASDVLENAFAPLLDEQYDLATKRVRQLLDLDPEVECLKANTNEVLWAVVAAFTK

fold increase in association after CPT versus DMSO control: 3.7 fold
Substance: MYO18A (endogenous), Q92614 1-2054

— article PMC4018323
